Reference: patent publication US20100047226

What was measured:
[1] = molecular target: active AKT1 (purified, Upstate Biotechnology) (UniProt P31749)
[2] = molecular target: active AKT1 mutant with a Ser473Asp mutation (UniProt P31749)
[3] = molecular target: active AKT1 mutant with a deletion in the PH domain (UniProt P31749)
[4] = test system: T1, ZaTa peptide (PKAc fragment flanking Thr-197)
T1 sequence: AKRVKGRTWTLCGTPEY

[5] = test system: T2, control peptide (adjacent overlapping PKAc peptide)
T2 sequence: GFAKRVKGRTWTL

[6] = test system: full-length, active PKAc (purified)

Sequence of active AKT1 (purified, Upstate Biotechnology) (P31749 whole entry, looked up): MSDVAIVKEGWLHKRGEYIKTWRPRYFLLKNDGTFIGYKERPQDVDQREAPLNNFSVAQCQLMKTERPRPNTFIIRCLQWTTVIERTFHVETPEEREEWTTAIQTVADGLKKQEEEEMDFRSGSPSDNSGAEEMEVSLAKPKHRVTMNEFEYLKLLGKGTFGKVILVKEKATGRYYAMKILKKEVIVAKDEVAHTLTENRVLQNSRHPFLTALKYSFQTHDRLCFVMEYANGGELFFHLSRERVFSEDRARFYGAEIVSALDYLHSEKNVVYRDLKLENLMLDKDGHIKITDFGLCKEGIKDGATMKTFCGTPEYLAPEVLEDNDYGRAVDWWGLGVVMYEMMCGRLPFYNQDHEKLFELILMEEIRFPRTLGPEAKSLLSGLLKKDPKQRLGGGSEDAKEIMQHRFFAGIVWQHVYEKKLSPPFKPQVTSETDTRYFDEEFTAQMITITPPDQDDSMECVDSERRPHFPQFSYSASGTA
Sequence of active AKT1 mutant with a Ser473Asp mutation (P31749 whole entry S473D, the tested form may be a part): as the sequence (P31749 whole entry, looked up) above, with S473D counted along it
Sequence of active AKT1 mutant with a deletion in the PH domain (P31749 whole entry, looked up, stated change not applied, the tested form may be a part): as the sequence (P31749 whole entry, looked up) above

full-length, active PKAc (purified)
AKT kinase activity in vitro (Ser-9 GSK-3 GST fusion protein as substrate) [1]: the kinetic activity of AKT was dramatically reduced
AKT kinase activity in vitro [2]: The decrease in the catalytic activity of AKT by PKAc was also observed with two mutants and active forms of AKT1 ... the other one with a Ser473Asp mutation
AKT kinase activity in vitro [3]: The decrease in the catalytic activity of AKT by PKAc was also observed with two mutants and active forms of AKT1, one with a deletion in the PH domain

active PKAc purified from bovine tissue
AKT kinase activity in vitro [1]: the same inhibitory effect was observed with active PKAc purified from bovine tissue

human PKAc expressed in Sf9 cells
AKT kinase activity in vitro [1]: the same inhibitory effect was observed ... with human PKAc expressed in Sf9 cells

active AKT1 (purified, Upstate Biotechnology)
IC-50 of AKT1 catalytic activity (32P incorporation, CPM) [4]: IC-50 of the ZaTa peptide was within a nanomolar range in these assays
IC-50 of AKT1 in vitro catalytic activity (32P incorporation into Ser-21 GSK-3 substrate peptide) [4]: IC-50 ˜0.1 µM
phosphorylation of Ser-9 GSK-3 GST substrate in the AKT1 kinase assay (western blot) [4]: The phosphorylation level of Ser-9 GSK-3 GST substrate was significantly reduced after adding the ZaTa peptide to the AKT1 kinase assay
phosphorylation of ZaTa by AKT (control kinase reactions with peptide and AKT only) [4]: ZaTa peptide itself was not a substrate for AKT
AKT1 in vitro catalytic activity (32P incorporation into Ser-21 GSK-3 substrate peptide) [5]: the adjacent overlapping peptide was not able to inhibit AKT1
PKA kinase activity in vitro (phosphorylation of DARPP-32 at Thr-34) [6]: addition of the active AKT to the PKA kinase assay increased the catalytic activity of PKAc
phosphorylation level of PKAc at Thr-197 in vitro [6]: the increase in the PKAc catalytic activity was accompanied by an increase in the phosphorylation level of PKAc at Thr-197
